Data taken from patent US20140294977A1, “Radiation-Sterilized Biodegradable Drug Delivery Composition” (DURECT CORPORATION, priority 2011, published 2014).

Experiment: Gamma-radiation stability of hGH:protamine powders and SAIB/BB/PLA suspensions by RPLC
Assay type: physicochemical
Details: after gamma irradiation at 15 kGy
Procedure: Aliquots of 3 mL each of the bulk hGH solution in buffer from BresaGen were transferred into 5 mL type-Hypak BD glass syringes and lyophilized using the lyophilization cycle provided in Table 1 (optimized for hGH) to fit the steps provided with an FTS lyophilizer, Dura Stop, MP Stoppering Tray Dryer, Stone Ridge, N.Y.
100 mg of BresaGen hGH powder was placed in a 15 mL wide-mouth glass jar. 5.5 mL of 25 mM NH4HCO3 (pH ˜7.5) solution was added and the compound was stirred for 30 min at room temperature, 400 rpm until it became clear. Then 1.02 mL of protamine sulfate solution (conc. 10 mg/mL) was slowly added to form a white precipitate. The resulting suspension was stirred for 30 min to complete the complexation reaction. 0.19 mL of 290 mM sucrose solution was then added while stirring at 400 rpm. When the solution was clear, 15.2 μL of 10% polysorbate 20 solution was added. In powders with methonine formulation, 1 wt %-35 wt % of methionine relative to the total protein weight was added to the complexed suspension. […]
Stability of the above formulations was determined using RPLC analysis. […]

Question: With “control hGH powder: lyophilized human growth hormone powder (BresaGen) without complex, used as control” as the substance, how does the “purity of hGH / impurity peaks in RPLC spectra (FIG. 1)” value read?
Answer: showed an impurity peak around 8.15 min
